From patent US20110230370A1 (CALIFORNIA INSTITUTE OF TECHNOLOGY, published 2011)

Legend:
[1] = molecular target: ^MNMATα2f (wild-type full-length MATα2, C-terminally flag-tagged) (S. cerevisiae) (UniProt P0CY08); test: cell-based or functional assay
[2] = molecular target: T1, Doa10myc13 (full-length, C-terminally myc13-tagged S. cerevisiae Doa10 E3 Ub ligase) (S. cerevisiae, UniProt P40318 1-1319); test: X-peptide pulldown from yeast extract, anti-myc immunoblot
T1 construct: mature; also called mycn-tagged Doa10; Doa10men
T1 sequence (looked up): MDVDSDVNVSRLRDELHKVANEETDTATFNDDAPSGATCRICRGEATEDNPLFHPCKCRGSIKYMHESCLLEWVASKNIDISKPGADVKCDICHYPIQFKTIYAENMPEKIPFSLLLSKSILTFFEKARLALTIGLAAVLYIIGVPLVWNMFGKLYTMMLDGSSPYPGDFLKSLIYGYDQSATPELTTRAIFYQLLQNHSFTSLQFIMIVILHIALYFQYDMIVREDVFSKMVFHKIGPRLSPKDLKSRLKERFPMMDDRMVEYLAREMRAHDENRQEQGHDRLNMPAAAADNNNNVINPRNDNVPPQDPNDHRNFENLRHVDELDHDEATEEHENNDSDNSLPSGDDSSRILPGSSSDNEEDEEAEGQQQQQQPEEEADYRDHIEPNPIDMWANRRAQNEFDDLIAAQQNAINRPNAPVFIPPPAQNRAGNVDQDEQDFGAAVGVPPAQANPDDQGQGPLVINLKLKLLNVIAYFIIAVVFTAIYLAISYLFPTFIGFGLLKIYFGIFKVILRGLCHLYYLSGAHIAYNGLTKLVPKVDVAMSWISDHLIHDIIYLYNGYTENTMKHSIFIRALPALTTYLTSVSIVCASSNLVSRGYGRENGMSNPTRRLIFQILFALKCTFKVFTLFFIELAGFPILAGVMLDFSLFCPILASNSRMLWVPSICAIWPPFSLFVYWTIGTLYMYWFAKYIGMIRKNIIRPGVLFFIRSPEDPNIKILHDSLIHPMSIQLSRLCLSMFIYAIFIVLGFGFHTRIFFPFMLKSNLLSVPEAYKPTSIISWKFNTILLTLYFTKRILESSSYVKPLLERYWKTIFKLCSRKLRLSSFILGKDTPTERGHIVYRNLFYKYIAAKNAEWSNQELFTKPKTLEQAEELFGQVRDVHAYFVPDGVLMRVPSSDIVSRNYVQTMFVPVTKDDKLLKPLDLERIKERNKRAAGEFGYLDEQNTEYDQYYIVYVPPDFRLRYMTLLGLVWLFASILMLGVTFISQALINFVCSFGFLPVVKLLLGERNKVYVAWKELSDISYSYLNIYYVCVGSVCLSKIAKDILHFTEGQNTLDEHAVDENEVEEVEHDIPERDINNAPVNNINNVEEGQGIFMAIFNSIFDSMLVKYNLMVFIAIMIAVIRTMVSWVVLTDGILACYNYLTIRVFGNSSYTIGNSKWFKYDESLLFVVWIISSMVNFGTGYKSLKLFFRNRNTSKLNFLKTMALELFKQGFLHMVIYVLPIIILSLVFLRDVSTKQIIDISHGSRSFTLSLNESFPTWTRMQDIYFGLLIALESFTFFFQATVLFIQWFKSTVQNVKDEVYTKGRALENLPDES

Doa10 E3 Ub ligase (endogenous, S. cerevisiae) (from UniProt P40318 1-1319)
level of MATα2f at 0 min (end of pulse) in wild-type cells relative to doa10Δ cells (100%), Ub-reference ^35S-pulse-chase [1]: 55%

Doa10 E3 Ub ligase (endogenous, S. cerevisiae) (from UniProt P40318 1-1319) (enzyme)
in vivo half-life of ^MNMATα2f, ^35S-pulse-chase, doa10Δ ubc4Δ cells (Doa10 absent) [1]: 35 min
in vivo half-life of ^MNMATα2f, ^35S-pulse-chase, ubc4Δ cells (Doa10 present) [1]: 9 min

B1: synthetic peptide XIFSTDTGPGGC with X=Arg (peptide)
peptide: RIFSTDTGPGGC
notes: also called nsP4-derived control peptide (X=Arg)
binding result [2]: no binding

B2: synthetic peptide XIFSTDTGPGGC with X=Phe (peptide)
peptide: FIFSTDTGPGGC
notes: also called nsP4-derived control peptide (X=Phe)
binding result [2]: no binding

B3: synthetic peptide XIFSTDTGPGGC with X=Met (peptide)
peptide: MIFSTDTGPGGC
notes: also called nsP4-derived control peptide (X=Met)
binding result [2]: no binding
